{
  "source": "patent EP1618130B1",
  "target": "HLA-A2 (human)",
  "data": [
    {"substance": "HLA-A2 high affinity positive control epitope from HIV-1 pol476-484 ([…]) (peptide)", "values": [
      {"measurement": "C50", "result": 0.2, "unit": "µM"}
    ]}
  ]
}
